Measurements from article PMC12435897.

Assays:
Set-up in all cases: EC50 of β-arrestin-1 recruitment to the receptor (NanoBiT, HEK293T, agonist mode) (M (inferred, not given)) / EC50 of β-arrestin-1 recruitment to CCR3 (NanoBiT, HEK293T, agonist mode) (M (inferred, not given)) / EC50 of β-arrestin-1 recruitment to CCR5 (NanoBiT, HEK293T, agonist mode) (M (inferred, not given)): unit not given beside the values
[1] = biological target: WT CCR5 C-terminally fused to SmBiT (human) (UniProt P51681)
[2] = biological target: T1, human CCR10 on Ready-to-Assay Chem-1 cells (human) (UniProt P46092)
T1 sequence: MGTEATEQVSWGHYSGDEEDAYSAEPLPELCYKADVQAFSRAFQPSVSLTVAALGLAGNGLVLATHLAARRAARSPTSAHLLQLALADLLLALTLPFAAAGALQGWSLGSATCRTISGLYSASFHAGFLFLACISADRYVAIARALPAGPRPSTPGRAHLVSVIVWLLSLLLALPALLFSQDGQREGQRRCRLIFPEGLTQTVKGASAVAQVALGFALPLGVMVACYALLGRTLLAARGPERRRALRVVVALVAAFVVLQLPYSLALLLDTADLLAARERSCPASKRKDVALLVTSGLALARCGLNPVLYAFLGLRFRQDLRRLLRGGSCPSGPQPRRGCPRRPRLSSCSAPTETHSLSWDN

[3] = biological target: T2, human CCR3 on Ready-to-Assay Chem-1 cells (human) (UniProt P51677)
T2 sequence: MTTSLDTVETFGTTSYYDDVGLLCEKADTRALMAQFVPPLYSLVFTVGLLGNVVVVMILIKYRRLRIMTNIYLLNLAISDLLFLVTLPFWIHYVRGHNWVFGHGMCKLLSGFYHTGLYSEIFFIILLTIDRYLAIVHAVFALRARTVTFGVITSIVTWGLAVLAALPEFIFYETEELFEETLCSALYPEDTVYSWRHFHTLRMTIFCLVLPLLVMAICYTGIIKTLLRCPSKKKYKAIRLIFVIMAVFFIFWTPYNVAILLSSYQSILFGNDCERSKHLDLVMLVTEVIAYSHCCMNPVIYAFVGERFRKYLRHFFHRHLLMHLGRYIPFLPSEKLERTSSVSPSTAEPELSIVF

[4] = biological target: WT CXCR4 C-terminally fused to SmBiT (human) (UniProt P61073)
[5] = biological target: T3, WT CCR3 C-terminally fused to SmBiT (human) (UniProt P51677)
T3 sequence: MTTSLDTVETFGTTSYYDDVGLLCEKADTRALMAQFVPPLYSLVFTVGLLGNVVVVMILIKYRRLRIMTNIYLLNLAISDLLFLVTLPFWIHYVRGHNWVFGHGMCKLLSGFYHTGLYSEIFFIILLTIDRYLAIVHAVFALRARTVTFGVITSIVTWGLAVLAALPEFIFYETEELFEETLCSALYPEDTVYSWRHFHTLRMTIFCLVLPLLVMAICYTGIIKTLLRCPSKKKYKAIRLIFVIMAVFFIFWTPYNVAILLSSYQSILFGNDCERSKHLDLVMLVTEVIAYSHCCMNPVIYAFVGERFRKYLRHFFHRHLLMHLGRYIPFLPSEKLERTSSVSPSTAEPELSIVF

With “CCL3 (from UniProt P10147 24-92) (ligand; in M (unit assumed))” the EC50 of β-arrestin-1 recruitment to the receptor (NanoBiT, HEK293T, agonist mode) (M (inferred, not given)) [1] was 4.12e-08.

With “CCL4 (from UniProt P13236 24-92) (ligand; in M (unit assumed))” the EC50 of β-arrestin-1 recruitment to the receptor (NanoBiT, HEK293T, agonist mode) (M (inferred, not given)) [1] was 1.45e-07.

In the case of “CCL5 (from UniProt P13501 24-91) (ligand)”, the β-arrestin-1 recruitment to the receptor (NanoBiT, HEK293T, agonist mode): mean peak activity, no single EC50 (fold untreated) [1] is reported as 16.5.

With CCL28 ∆1 (∆S) (ligand) the EC50 of calcium flux in Chem-1 cells expressing the receptor (row labelled WT CCR3 in the sheet, taken as CCR10) [2] was 170 nM.

“CCL28 ∆1 (∆S) (ligand; in M (unit assumed))” gave an EC50 of calcium flux in Chem-1 cells expressing the receptor (M (inferred, not given)) [3] of 1.72e-07.

CCL28 ∆2 (∆SE) (ligand) gave an EC50 of calcium flux in Chem-1 cells expressing the receptor (row labelled WT CCR3 in the sheet, taken as CCR10) [2] of 29 nM.

“CCL28 ∆2 (∆SE) (ligand; in M (unit assumed))” was tested, and the EC50 of calcium flux in Chem-1 cells expressing the receptor (M (inferred, not given)) [3] was 5.46e-08.

For CCL28 ∆3 (∆SEA) (ligand), the EC50 of calcium flux in Chem-1 cells expressing the receptor (row labelled WT CCR3 in the sheet, taken as CCR10) [2] was 32 nM.

With “CCL28 ∆3 (∆SEA) (ligand; in M (unit assumed))” the EC50 of calcium flux in Chem-1 cells expressing the receptor (M (inferred, not given)) [3] was 5.22e-08.

With CCL28 ∆4 (∆SEAI) (ligand) the EC50 of calcium flux in Chem-1 cells expressing the receptor (row labelled WT CCR3 in the sheet, taken as CCR10) [2] was 390 nM.

Molecule “CCL28 ∆4 (∆SEAI) (ligand; in M (unit assumed))” has an EC50 of calcium flux in Chem-1 cells expressing the receptor (M (inferred, not given)) [3] of 2.79e-08.

Molecule “CXCL12 (from UniProt P48061 22-93) (ligand)” has an EC50 of β-arrestin-1 recruitment to the receptor (NanoBiT, HEK293T, agonist mode) [4] of 1.41 nM.

With vMIP-II K10T (ligand) the EC50 of β-arrestin-1 recruitment to CCR3 (NanoBiT, HEK293T, agonist mode) (M (inferred, not given)) [5] was 5.84e-10.

vMIP-II L13F (ligand) gave an EC50 of β-arrestin-1 recruitment to CCR3 (NanoBiT, HEK293T, agonist mode) (M (inferred, not given)) [5] of 5.34e-10.

vMIP-II R7I (ligand) gave an EC50 of β-arrestin-1 recruitment to CCR3 (NanoBiT, HEK293T, agonist mode) (M (inferred, not given)) [5] of 3.79e-10.

vMIP-II R7I/K10T/L13F (ligand) showed an EC50 of β-arrestin-1 recruitment to CCR5 (NanoBiT, HEK293T, agonist mode) (M (inferred, not given)) [1] of 1.08e-07 and an EC50 of β-arrestin-1 recruitment to CCR3 (NanoBiT, HEK293T, agonist mode) (M (inferred, not given)) [5] of 1.11e-09.

B1: WT CCL28 (ligand)
chain: SEAILPIASSCCTEVSHHISRRLLERVNMCRIQRADGDCDLAAVILHVKRRRICVSPHNHTVKQWMKVQAAKKNGKGNVCHRKKHHGKRNSNRAHQGKHETYGHKTPY
B1 gave an EC50 of calcium flux in Chem-1 cells expressing the receptor (M (inferred, not given)) [3] of 1.42e-07 and an EC50 of calcium flux in Chem-1 cells expressing the receptor (row labelled WT CCR3 in the sheet, taken as CCR10) [2] of 230 nM.

B2: viral macrophage inflammatory protein II (vMIP-II) (ligand)
chain: GDTLGASWHRPDKCCLGYQKRPLPQVLLSSWYPTSQLCSKPGVIFLTKRGRQVCADKSKDWVKKLMQQLPVTAR
B2 gave an EC50 of β-arrestin-1 recruitment to CCR3 (NanoBiT, HEK293T, agonist mode) (M (inferred, not given)) [5] of 1.35e-09.
